Values quoted from earlier work, collected in publication PMC2855346.

Target: CCR2 (Homo sapiens) (UniProt P41597)
UniProt P41597, sequence (P41597 whole entry): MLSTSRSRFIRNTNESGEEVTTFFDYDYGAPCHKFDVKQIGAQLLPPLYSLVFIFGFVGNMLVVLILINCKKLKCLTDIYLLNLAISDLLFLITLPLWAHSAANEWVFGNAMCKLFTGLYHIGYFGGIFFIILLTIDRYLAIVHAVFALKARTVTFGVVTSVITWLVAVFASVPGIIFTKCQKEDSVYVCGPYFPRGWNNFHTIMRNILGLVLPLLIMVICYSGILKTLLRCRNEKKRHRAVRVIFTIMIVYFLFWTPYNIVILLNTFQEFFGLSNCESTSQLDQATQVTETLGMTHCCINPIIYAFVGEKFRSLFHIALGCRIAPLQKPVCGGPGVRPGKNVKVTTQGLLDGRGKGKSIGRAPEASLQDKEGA

CCL2 (from UniProt P13500)
Kd: 2.5 nM
